Results from PMC4297576.
pKd: −log10 of the molar value.

Columns and labels:
[1] = biological target: Cdk2/cyclin A complex (T160-phosphorylated full-length human Cdk2 and truncated human cyclin A2, residues 173-432) (human) (UniProt P24941)
[2] = biological target: Cdk2/cyclin A complex (T160-phosphorylated full-length human Cdk2 and truncated human cyclin A2, residues 173-432) (human) (UniProt P24941); assay: ITC

Chain of peptide corresponding to sub-domain D1C (p21 residues 139-160) (P38936 139-160): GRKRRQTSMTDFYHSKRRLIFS

How did the IC50 of inhibition of Cdk2/cyclin A kinase activity, substrate Histone H1 [1] turn out when “p21-FL-Y77E (from UniProt P38936 1-164) (natural protein)” was run?
The IC50 of inhibition of Cdk2/cyclin A kinase activity, substrate Histone H1 was 23.4 nM.

And the IC50 of inhibition of Cdk2/cyclin A kinase activity, substrate Rb-C [1]?
Its IC50 of inhibition of Cdk2/cyclin A kinase activity, substrate Rb-C is 19.9 nM.

How did the IC50 of inhibition of Cdk2/cyclin A kinase activity, substrate Histone H1 [1] turn out when “p21-KIDC-Y77E (from UniProt P38936 25-164) (domain or fragment)” was run?
Its IC50 of inhibition of Cdk2/cyclin A kinase activity, substrate Histone H1 is 55.4 nM.

And the IC50 of inhibition of Cdk2/cyclin A kinase activity, substrate Rb-C [1]?
The IC50 of inhibition of Cdk2/cyclin A kinase activity, substrate Rb-C was 22.8 nM.

“peptide corresponding to sub-domain D1C (p21 residues 139-160) (from UniProt P38936 139-160)” was tested. Which pKd [2] did it give?
Its pKd is 6.68.

“p21-KIDN-Y77E (from UniProt P38936 9-84) (domain or fragment)” was tested. Which IC50 of inhibition of Cdk2/cyclin A kinase activity, substrate Histone H1 [1] did it give?
Its IC50 of inhibition of Cdk2/cyclin A kinase activity, substrate Histone H1 is 68.1 nM.

What about the IC50 of inhibition of Cdk2/cyclin A kinase activity, substrate Rb-C [1] of the same substance?
The IC50 of inhibition of Cdk2/cyclin A kinase activity, substrate Rb-C was 46.6 nM.
